Experimental data reported in publication PMC9445180, “Allosteric inhibition of HTRA1 activity by a conformational lock mechanism to treat age-related macular degeneration” (Nature Communications, 2022).

Key:
[1] = target: T1, HTRA1^FL/SA (catalytically inactive S328A mutant of full-length HTRA1) (human, UniProt Q92743, S328A); assay: SEC; HTRA1 proteins mixed with Fab15H6.v4 (1:2 molar ratio, 30 min on ice); Superdex 200 Increase 3.2/300; 200 mM NaCl, 20 mM HEPES pH 7.5, 0.25% CHAPS; size against protein standards; conditions: both partners purified
T1 construct: human HTRA1, Q23-P480, with S328A; source: Trichoplusia ni cells, purified from the medium (Ni-NTA, SEC)

[2] = target: T2, HTRA1^PD/SA (catalytically inactive S328A mutant of the HTRA1 protease domain) (human, UniProt Q92743, S328A); assay: as above; conditions: both partners purified
T2 construct: human HTRA1 protease domain, D161-K379, with S328A; source: E. coli, purified (Ni-NTA, SEC)

[3] = target: T3, HTRA1^PD (human HTRA1 protease domain, D161-K379) (human, UniProt Q92743); assay: as above; conditions: both partners purified
T3 construct: human HTRA1 protease domain, D161-K379, 24 kDa; His6 tag is TEV or thrombin cleavable; captured by it in SPR; also called wildtype HTRA1^PD; active HTRA1^PD; source: E. coli, purified (Ni-NTA, SEC); not shown: His6, N-terminal, kept

[4] = target: T4, HTRA2 LoopA wildtype peptide (Homo sapiens); assay: SPR; Fab15H6.v4 (1000 RU) immobilised on a CM5 chip by amine coupling, synthetic LoopA peptides as analytes, single-cycle kinetics, three-fold dilutions from 10 nM (HTRA1 peptides) or 3 μM (HTRA2, HTRA3, HTRA4 peptides); 25 °C, HBS-EP; conditions: both partners purified
T4 construct: LoopA of human HTRA2, residues 168-179; also called LoopA peptide of HTRA2; source: synthetic peptide (Abclonal)
T4 chain: DRHPFLGREVPI

[5] = target: T5, HTRA3 LoopA wildtype peptide (Homo sapiens); assay: as above; conditions: both partners purified
T5 construct: LoopA of human HTRA3, residues 161-172; also called LoopA peptide of HTRA3; source: synthetic peptide (Abclonal)
T5 chain: LRHPLFGRNVPL

[6] = target: T6, HTRA1 LoopA wildtype peptide (Homo sapiens); assay: as above; conditions: both partners purified
T6 construct: LoopA of human HTRA1, residues 190-201; also called HTRA1-LoopA peptide; LoopA peptide; source: synthetic peptide (Abclonal for SPR; NeoBiolab for the crystal)
T6 chain: RKLPFSKREVPV

[7] = target: T7, HTRA4 LoopA wildtype peptide (Homo sapiens); assay: as above; conditions: both partners purified
T7 construct: LoopA of human HTRA4, residues 188-199; also called LoopA peptide of HTRA4; source: synthetic peptide (Abclonal)
T7 chain: GRLLHGSRLVPV

[8] = target: T8, HTRA2^PD/PDZ (HTRA2 protease/PDZ domain, A134-E458) (human, UniProt O43464); assay: SPR; His6-tagged HTRA proteins (about 200 RU) captured with the His-capture kit on a CM5 chip, Fab15H6.v4 as analyte, single-cycle kinetics, three-fold dilutions from 1 nM or 1 μM; absence of binding verified with 3 μM Fab; Biacore S200, 25 °C, HBS-EP; 1:1 Langmuir model; conditions: both partners purified
T8 construct: human HTRA2 protease and PDZ domains, A134-E458; also called wildtype HTRA2; source: E. coli, purified (Ni-NTA, SEC); not shown: His6, N-terminal, kept

[9] = target: T9, HTRA3^PD/PDZ (HTRA3 protease/PDZ domain, L130-M453) (Homo sapiens, UniProt P83110); assay: as above; conditions: both partners purified
T9 construct: human HTRA3 protease and PDZ domains, L130-M453; also called wildtype HTRA3; source: E. coli, purified (Ni-NTA, SEC); not shown: His6, N-terminal, kept
T9 sequence (P83110 130-453): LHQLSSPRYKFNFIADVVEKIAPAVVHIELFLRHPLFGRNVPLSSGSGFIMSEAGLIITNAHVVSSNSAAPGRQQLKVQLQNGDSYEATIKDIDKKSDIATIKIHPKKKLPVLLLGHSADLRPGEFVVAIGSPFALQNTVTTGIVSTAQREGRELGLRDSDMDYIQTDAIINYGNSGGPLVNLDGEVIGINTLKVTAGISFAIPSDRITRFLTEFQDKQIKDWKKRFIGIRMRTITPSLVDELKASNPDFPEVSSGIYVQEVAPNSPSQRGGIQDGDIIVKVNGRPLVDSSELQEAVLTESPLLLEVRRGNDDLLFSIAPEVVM

[10] = target: T3, HTRA1^PD (human HTRA1 protease domain, …); assay: as above; conditions: both partners purified
[11] = target: T3, HTRA1^PD (human HTRA1 protease domain, …); assay: SPR; wildtype His6-tagged HTRA1^PD (about 200 RU) captured with the His-capture kit on a CM5 chip; scFv15H6.v4, Fab15H6.v4 and its mutants as analytes, single-cycle kinetics, three-fold dilutions from 10 nM or 1 μM; absence of binding confirmed up to 3 μM; 25 °C, HBS-EP; conditions: both partners purified
[12] = target: the molecule itself; assay: SEC; HTRA proteins and their LoopA deletion mutants alone; Superdex 200 Increase 3.2/300; 200 mM NaCl, 20 mM HEPES pH 7.5, 0.25% CHAPS; size against gel filtration standard

B1: Fab15H6.v4 (Fab, V domains shown)
VH: EVQLVQSGAEVKKPGASVKVSCKASGYKFTDSEMHWVRQAPGQGLEWIGGVDPETEGAAYNQKFKGRATITRDTSTSTAYLELSSLRSEDTAVYYCTRGYDYDYALDYWGQGTLVTVSS
VL: DIQMTQSPSSLSASVGDRVTITCRASSSVEFIHWYQQKPGKAPKPLISATSNLASGVPSRFSGSGSGTDFTLTISSLQPEDFATYYCQQWSSAPWTFGQGTKVEIK
notes: light chain of Fab15H6.v4; also called the Fab; source: expressed in Complete CRAP media with carbenicillin, purified (Protein G, SP Sepharose)
In the case of B1, the “stoichiometry N” value [1] is reported as 3 Fab per HTRA1 trimer, the “stoichiometry N” value [2] is reported as 3 Fab per HTRA1 trimer and the “stoichiometry N” value [3] is reported as 3 Fab per HTRA1 trimer. The binding result [4] was “no binding (tested: 3 μM)”, the binding result [5] was “no binding (tested: 3 μM)” and the Kd [6] was 770 pM. B1: no binding (tested: 3 μM) [7]; no binding (tested: 3 μM Fab) [8]; no binding (tested: 3 μM Fab) [9]. For the same binder, the Kd [10] was 120 pM.

B2: Fab15H6.v4 with all eight key paratope residues mutated to alanine (Fab, V domains shown)
VH: EVQLVQSGAEVKKPGASVKVSCKASGYKFAAAEMHWVRQAPGQGLEWIGGVAPETEGAAYNQKFKGRATITRDTSTSTAYLELSSLRSEDAAVYYCTRGAAADYALDYWGQGTLVTVSS
VL: DIQMTQSPSSLSASVGDRVTITCRASSSVEFIHWYQQKPGKAPKPLISATSNLASGVPSRFSGSGSGTDFTLTISSLQPEDFATYYCQQWSSAPWTFGQGTKVEIK
notes: as the heavy chain of m1, with eight paratope residues of the three CDR loops changed to alanine; as the light chain of m1
B2: no binding (tested: 3 μM) [11].

B3: Fab15H6.v4 Y100A (Fab, V domains shown)
VH: EVQLVQSGAEVKKPGASVKVSCKASGYKFTDSEMHWVRQAPGQGLEWIGGVDPETEGAAYNQKFKGRATITRDTSTSTAYLELSSLRSEDTAVYYCTRGADYDYALDYWGQGTLVTVSS
VL: DIQMTQSPSSLSASVGDRVTITCRASSSVEFIHWYQQKPGKAPKPLISATSNLASGVPSRFSGSGSGTDFTLTISSLQPEDFATYYCQQWSSAPWTFGQGTKVEIK
notes: as the heavy chain of m1, with Y100A; as the light chain of m1
In the case of B3, the “fold affinity loss against Fab15H6.v4” value [11] is reported as 200 fold.

B4: Fab15H6.v4 D52A (Fab, V domains shown)
VH: EVQLVQSGAEVKKPGASVKVSCKASGYKFTDSEMHWVRQAPGQGLEWIGGVAPETEGAAYNQKFKGRATITRDTSTSTAYLELSSLRSEDTAVYYCTRGYDYDYALDYWGQGTLVTVSS
VL: DIQMTQSPSSLSASVGDRVTITCRASSSVEFIHWYQQKPGKAPKPLISATSNLASGVPSRFSGSGSGTDFTLTISSLQPEDFATYYCQQWSSAPWTFGQGTKVEIK
notes: as the heavy chain of m1, with D52A; as the light chain of m1
B4 was tested, and the “fold affinity loss against Fab15H6.v4” value [11] was 2000 fold.

B5: scFv15H6.v4 (single chain Fv version of Fab15H6.v4) (scFv, V domains shown)
VH: EVQLVQSGAEVKKPGASVKVSCKASGYKFTDSEMHWVRQAPGQGLEWIGGVDPETEGAAYNQKFKGRATITRDTSTSTAYLELSSLRSEDTAVYYCTRGYDYDYALDYWGQGTLVTVSS
VL: DIQMTQSPSSLSASVGDRVTITCRASSSVEFIHWYQQKPGKAPKPLISATSNLASGVPSRFSGSGSGTDFTLTISSLQPEDFATYYCQQWSSAPWTFGQGTKVEIK
notes: variable domain of the light chain of m1, D1-K106; (GGGGS)4 linker; variable domain of the heavy chain of m1, E1-S119
B5 gave a Kd [11] of 9400 pM.

B6: HTRA1^PD-ΔLoopA (domain or fragment)
chain: not shown
notes: human HTRA1 protease domain, D161-K379, entire LoopA replaced with the beta hairpin motif NG; also called HTRA1-ΔLoopA; HTRA1^PD-ΔLoop mutant; source: E. coli, purified (Ni-NTA, SEC); not shown: His6, N-terminal, kept
B6 was tested, and the “stoichiometry N” value [12] was 3.

B7: HTRA2^PD/PDZ (HTRA2 protease/PDZ domain, A134-E458) (domain or fragment, human, UniProt O43464 134-458, looked up)
chain: AVPSPPPASPRSQYNFIADVVEKTAPAVVYIEILDRHPFLGREVPISNGSGFVVAADGLIVTNAHVVADRRRVRVRLLSGDTYEAVVTAVDPVADIATLRIQTKEPLPTLPLGRSADVRQGEFVVAMGSPFALQNTITSGIVSSAQRPARDLGLPQTNVEYIQTDAAIDFGNSGGPLVNLDGEVIGVNTMKVTAGISFAIPSDRLREFLHRGEKKNSSSGISGSQRRYIGVMMLTLSPSILAELQLREPSFPDVQHGVLIHKVILGSPAHRAGLRPGDVILAIGEQMVQNAEDVYEAVRTQSQLAVQIRRGRETLTLYVTPEVTE
notes: human HTRA2 protease and PDZ domains, A134-E458; also called wildtype HTRA2; source: E. coli, purified (Ni-NTA, SEC); not shown: His6, N-terminal, kept
B7 was tested, and the “stoichiometry N” value [12] was 3.
